Test results as given in patent US20030108998.

Molecular target: purified bovine aggrecan monomers isolated from bovine nasal cartilage, P13608
Sequence (P13608 17-2364): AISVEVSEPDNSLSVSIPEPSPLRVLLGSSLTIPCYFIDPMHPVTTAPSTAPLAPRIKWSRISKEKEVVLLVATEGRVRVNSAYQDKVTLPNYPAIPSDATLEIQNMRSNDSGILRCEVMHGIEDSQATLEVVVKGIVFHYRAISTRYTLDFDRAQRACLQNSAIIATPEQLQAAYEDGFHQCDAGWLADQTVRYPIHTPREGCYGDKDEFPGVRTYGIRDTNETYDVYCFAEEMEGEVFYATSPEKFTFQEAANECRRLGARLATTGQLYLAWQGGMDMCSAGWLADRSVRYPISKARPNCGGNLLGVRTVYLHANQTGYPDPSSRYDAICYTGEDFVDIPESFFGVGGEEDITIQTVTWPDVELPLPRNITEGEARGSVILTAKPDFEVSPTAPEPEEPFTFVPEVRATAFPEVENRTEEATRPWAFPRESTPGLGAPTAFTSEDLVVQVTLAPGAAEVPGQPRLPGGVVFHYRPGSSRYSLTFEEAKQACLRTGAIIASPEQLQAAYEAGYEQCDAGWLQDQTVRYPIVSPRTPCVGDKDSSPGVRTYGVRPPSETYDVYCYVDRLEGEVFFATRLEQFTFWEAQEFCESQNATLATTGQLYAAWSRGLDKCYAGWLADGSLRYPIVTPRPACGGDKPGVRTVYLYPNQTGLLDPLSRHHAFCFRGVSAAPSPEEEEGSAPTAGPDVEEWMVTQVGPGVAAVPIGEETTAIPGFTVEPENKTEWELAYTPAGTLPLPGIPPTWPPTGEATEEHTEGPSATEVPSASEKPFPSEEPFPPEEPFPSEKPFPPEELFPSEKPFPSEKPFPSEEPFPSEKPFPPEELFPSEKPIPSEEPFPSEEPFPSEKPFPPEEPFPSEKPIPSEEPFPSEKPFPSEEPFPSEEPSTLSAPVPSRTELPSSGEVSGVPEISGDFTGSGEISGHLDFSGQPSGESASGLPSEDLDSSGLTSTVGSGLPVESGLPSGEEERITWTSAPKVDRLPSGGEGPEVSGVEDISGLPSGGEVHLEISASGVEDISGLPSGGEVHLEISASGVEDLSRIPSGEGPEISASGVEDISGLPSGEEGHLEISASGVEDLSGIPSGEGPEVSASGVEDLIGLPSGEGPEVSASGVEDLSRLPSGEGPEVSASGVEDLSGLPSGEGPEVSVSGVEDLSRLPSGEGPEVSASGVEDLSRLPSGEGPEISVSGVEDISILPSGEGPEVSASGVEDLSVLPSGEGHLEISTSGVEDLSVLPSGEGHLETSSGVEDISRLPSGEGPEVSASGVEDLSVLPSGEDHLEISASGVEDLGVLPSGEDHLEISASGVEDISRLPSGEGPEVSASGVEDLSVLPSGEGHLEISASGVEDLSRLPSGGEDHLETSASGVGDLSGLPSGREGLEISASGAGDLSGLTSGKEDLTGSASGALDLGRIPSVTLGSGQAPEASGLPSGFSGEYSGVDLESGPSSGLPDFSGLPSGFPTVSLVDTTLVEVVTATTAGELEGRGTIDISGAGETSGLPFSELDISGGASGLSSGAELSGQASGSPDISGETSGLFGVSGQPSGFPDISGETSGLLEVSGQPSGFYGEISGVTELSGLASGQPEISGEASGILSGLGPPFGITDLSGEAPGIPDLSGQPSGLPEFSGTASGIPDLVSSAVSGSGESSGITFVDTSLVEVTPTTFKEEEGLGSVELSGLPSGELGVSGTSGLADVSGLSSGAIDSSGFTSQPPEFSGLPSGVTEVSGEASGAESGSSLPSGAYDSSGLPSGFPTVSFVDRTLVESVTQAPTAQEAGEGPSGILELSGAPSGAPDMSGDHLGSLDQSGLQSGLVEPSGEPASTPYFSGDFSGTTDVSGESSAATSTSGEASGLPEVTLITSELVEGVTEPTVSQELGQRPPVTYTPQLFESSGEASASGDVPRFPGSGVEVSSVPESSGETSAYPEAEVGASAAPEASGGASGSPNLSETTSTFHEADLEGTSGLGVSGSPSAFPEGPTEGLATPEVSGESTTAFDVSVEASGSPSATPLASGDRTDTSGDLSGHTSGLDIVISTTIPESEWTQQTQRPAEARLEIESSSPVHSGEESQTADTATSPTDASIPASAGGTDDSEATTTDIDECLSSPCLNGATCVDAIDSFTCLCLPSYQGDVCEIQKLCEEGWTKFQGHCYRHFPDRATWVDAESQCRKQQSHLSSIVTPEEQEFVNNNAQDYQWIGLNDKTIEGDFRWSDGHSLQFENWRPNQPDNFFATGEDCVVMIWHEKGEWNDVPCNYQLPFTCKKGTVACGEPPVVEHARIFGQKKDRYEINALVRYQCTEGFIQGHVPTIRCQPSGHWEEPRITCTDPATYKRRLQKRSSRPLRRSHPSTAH

B1: ADMP-1 (aggrecan degrading metallo protease 1), 67 kDa active form purified from conditioned media of IL-1-stimulated bovine nasal cartilage (protein)
chain: FASLSRFVETLVVADDKMAAFHGAGLKRYLLTVMAAAAKAFKHPSIRNPVSLVVTRLVVLGPGEEGPQVGPSAAQTLRSFCAWQRGLNTPDDADPGHFDTAILFTRQDLCGVSTCDTLGMADVGTVCDPARSCAIVEDDGLQSAFTAAHELGHVFSMLHDNSKQCTGLNGPESTSRHVMAPVMAHVDPEEPWSPCSARFITDFLDNGFGHCLLDKPEAPLHLPVTFPGKDYDADRQCQLTFGPDSRHCPQLPPPCAALWCSGHLNGHAMCQTKHSPWADGTPCGPAQACMGGRCLHVDQLQAFNVPQAGGWGPWGSWGDCSRSCGGGVQFSSRDCTRPVPRNGGKYCEGRRTRFRSCNTQDCPTGSALTFREEQCAAYNHRTDLFKNFPGPMDWVPRYTGVAPRDQCKLTCQTRALGYYYVLDPRVADGTPCSPDSSSVCVQGRCIHAGCDRVIGSKKKFDKCMVCGGDGSSCSKQSGSFKKFRYGYNNVVTIPAGATHILVRQQGSPSVRSLYLALKLPDGSYALNGEYTLIPSPTDVVLPGAVSLRYSGATAASETLSGHGPLAEPLTLQVLVAGNPQNARLRYSFFVPRPRPVPSTPRPTPQDWLRRKSQILEILRRRSWAGRK
ADMP activity (incubation with aggrecan substrate, products monitored with the BC-3 antibody): The region of the gel containing the 67 kDa ADMP-1 protein exhibited activity while that of the control portion of the gel did not | cleavage of aggrecan at Glu373-Ala374, detected as BC-3-reactive fragments (Western blot): Incubation of the GuHCl-eluted ADMP-1 with isolated bovine aggrecan produced a pattern of BC-3-reactive fragments similar to that produced upon cleavage of cartilage aggrecan by endogenous aggrecanase
